Drawing on PMC7398979, this text covers stoichiometry N for one substance.

The target of test [1] is sulfur oxygenase reductase from Sulfurisphaera tokodaii (Sulfurisphaera tokodaii strain 7). In words: crystal structure; sitting drop at 20 °C, 1.2 M ammonium sulfate, 100 mM MES-NaOH pH 6.1, 4% dioxane; space group I23, 8 monomers per asymmetric unit; 1.73 Å.
Test [2] shares this target. Kind of test: SEC; gel filtration on HiLoad 16/600 Superdex 200 pg; standards thyroglobulin (669 k), pyruvate kinase (237 k), ovalbumin (44 k), RNaseA (14 k); peak at 539 kDa.
For test [3] the target is unchanged. Kind of test: cryo-EM structure; single particle analysis, 10 mg/mL in 20 mM Tris-HCl pH 8.0, 150 mM NaCl; sample partially purified (heat treatment, gel filtration); 200 kV Talos Arctica; octahedral symmetry imposed, 2.24 Å (C1: 2.73 Å).

Turning to “sulfur oxygenase reductase from Sulfurisphaera tokodaii (enzyme)”, the stoichiometry N was 24 in test [1], 15 to 16 in test [2] and 24 in test [3].
